Test results: PMC4319731, “A Lipoxygenase from Red Alga Pyropia haitanensis, a Unique Enzyme Catalyzing the Free Radical Reactions of Polyunsaturated Fatty Acids with Triple Ethylenic Bonds” (PLoS ONE, 2015)

Key:
[1] = molecular target: T1, PhLOX2 (Pyropia haitanensis, UniProt R9UEL2); experiment: UV absorbance of conjugated diene at […] nm, Lineweaver-Burk; type: biochemical; details: pH 8.0, 20°C, 12 μM enzyme, substrate 20-200 μM; O2 co-substrate
T1 construct: gene lox2; monomer by size exclusion

[2] = substrate: CCCCC/C=C\C/C=C\C/C=C\C/C=C\CCCC(=O)O; experiment: purified protein; type: biochemical, Pyropia haitanensis; details: pH 8.0, 20°C, 12 μM enzyme, substrate 20-200 μM, O2 co-substrate
[3] = substrate: CC/C=C\C/C=C\C/C=C\C/C=C\C/C=C\CCCC(=O)O; experiment: purified protein; type: biochemical, Pyropia haitanensis; details: pH 8.0, 20°C, 12 μM enzyme, substrate 20-200 μM, O2 co-substrate
[4] = substrate: CC/C=C\C/C=C\C/C=C\C/C=C\C/C=C\C/C=C\CCC(=O)O; experiment: purified protein; type: biochemical, Pyropia haitanensis; details: pH 8.0, 20°C, 12 μM enzyme, substrate 20-200 μM, O2 co-substrate

Km [1] [µM] | Molecule | Km [2] [µM] | kcat [2] [s⁻¹] | kcat/Km [2] [M⁻¹ s⁻¹] | Km [3] [µM] | kcat [3] [s⁻¹] | kcat/Km [3] [M⁻¹ s⁻¹] | Km [4] [µM] | kcat [4] [s⁻¹] | kcat/Km [4] [M⁻¹ s⁻¹]
151 | CCCCC/C=C\C/C=C\C/C=C\CCCCC(=O)O [GLA] | – | – | – | – | – | – | – | – | –
– | PhLOX2 (Pyropia haitanensis) (protein, monomer by size exclusion) MAHTGTLGGSGCGQPLVAALKAHRTVVDGTIDAPVEAVWAKLRDFGGWPAWWPAMGATAVTPPGPPAVGQERAFTANGRSYVEALTWLDEGAHLLEYRLVSADPPLLDAGARTTFEAVPAGARSTRLTVECAFQPAYNVDAGVIRGGQTAAYESIMEGLQHALVEGPPLRPLRLTVTKNELRREVTAGHLLLTMGGVVLHRLRLTGAGTPVSADAVTVQLSRADAELRLELLDAKDTPVAAGSVAVGALTTPPVTHGVVLSNPHGDPVGTYTVSVVNAPPSSTVEAATALLFSLGKSLAEQLLQTVFFMGHDDGRWAYGEYTAADGTALTMPKYCAVLPPSQAIRPERLGQLFARNAEFLYAQAELLKLLVDTNPPGLEELPQAVRDKLAKEAALQKKIKERVTHEPSPFRLTFGGDHPAPERVIETWRDDEEQAAQMIRGINPMKLRRVTDAAAELPPAFHGLRDDAGRDVAALAAANALFYADYAELMVGELDEETGAYHHQAESAVLDSTVGGVKYWYAPRLVVYKTLAGKLSFLGFTLTRRGDAPGDDEMYTAAGTPPVRYTLAKIHLTCADNQVHQFVSHLGMTHLLAEPFIVAAHNVLPPSHIVSALLAVHFQDTIGINFLARQTLVSTVAPLTDATFSVGTGHALSIFAAAYDGWDFLGDNFVGALAKRGFTADAAADGLHDFYYREDGFRVWNALTRYVSTVLHGHYGAGTAADDAVAADPVLAAWCAEMRDPAAAGVASFPAAFTTVGALVEAVVSIIFLCSAQHAAVNFPQRDYVAYVPNRPDSVRLPMPPRPAAGADNDEAVVGATLPDVAVSVFQTLFAHLLTTPSDAPVSSYAALKEDHPAAWGAFTADLAQLQRDIEARNAALVAANEAPYPYLAPENMPLSIDI | 114.17 | 47.5 | 416000 | 54.09 | 62.5 | 1.16e+06 | 91.59 | 12.6 | 138000
